Laboratory results published in article PMC8534798, “Foxd4l1.1 Negatively Regulates Chordin Transcription in Neuroectoderm of Xenopus Gastrula” (Cells, 2021).

Legend:
HA-Smad2 (wild type) = HA-Smad2 (wild type) (human, UniProt Q15796 1-467); experiment: cell-based or functional assay
HA-Smad3 (wild type) = HA-Smad3 (wild type) (human, UniProt P84022 1-425); experiment: cell-based or functional assay
HA-Smad3 (wild type), sequence (P84022 whole entry): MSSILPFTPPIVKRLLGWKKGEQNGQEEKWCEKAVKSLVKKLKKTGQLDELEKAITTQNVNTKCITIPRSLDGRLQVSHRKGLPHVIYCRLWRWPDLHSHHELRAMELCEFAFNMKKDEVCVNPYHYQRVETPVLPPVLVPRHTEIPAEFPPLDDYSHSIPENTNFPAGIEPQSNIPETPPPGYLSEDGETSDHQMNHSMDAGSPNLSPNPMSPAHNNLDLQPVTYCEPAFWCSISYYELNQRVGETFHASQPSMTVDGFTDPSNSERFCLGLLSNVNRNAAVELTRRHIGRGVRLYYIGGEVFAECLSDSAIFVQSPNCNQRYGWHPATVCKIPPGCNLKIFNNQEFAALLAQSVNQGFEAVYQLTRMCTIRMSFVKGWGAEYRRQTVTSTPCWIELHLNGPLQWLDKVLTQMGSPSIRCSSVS

HA-Smad2 (wild type), sequence (Q15796 whole entry): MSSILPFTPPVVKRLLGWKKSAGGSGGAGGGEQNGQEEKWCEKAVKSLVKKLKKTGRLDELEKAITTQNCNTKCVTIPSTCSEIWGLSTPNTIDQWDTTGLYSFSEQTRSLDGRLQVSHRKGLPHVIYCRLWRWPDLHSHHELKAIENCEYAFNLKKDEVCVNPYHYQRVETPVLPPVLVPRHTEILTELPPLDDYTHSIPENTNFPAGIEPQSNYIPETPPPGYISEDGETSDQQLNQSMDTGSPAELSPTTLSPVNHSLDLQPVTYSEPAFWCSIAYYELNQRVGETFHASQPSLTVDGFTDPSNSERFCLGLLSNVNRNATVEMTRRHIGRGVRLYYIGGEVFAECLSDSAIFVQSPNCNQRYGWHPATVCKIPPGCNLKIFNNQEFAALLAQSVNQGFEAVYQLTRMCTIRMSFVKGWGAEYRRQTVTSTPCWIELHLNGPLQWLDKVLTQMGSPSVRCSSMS

ChIP-qPCR: occupancy of HA-Smad2 on the AREs of the chrd promoter without and with co-injected Flag-Foxd4l1.1 (fold enrichment) (HA-Smad2 (wild type)): 7.3 fold
ChIP-qPCR: occupancy of HA-Smad3 on the AREs of the chrd promoter without and with co-injected Flag-Foxd4l1.1 (fold enrichment) (HA-Smad3 (wild type)): 4.02 fold
B1: Flag-Foxd4l1.1 (natural protein, Xenopus, UniProt Q9PRJ8 1-352, looked up)
chain: MSFSQESGAHHHPQDYAGLSDEEDEIDILGEDDPCSLKSHFYLQPTHSVMGDSEMLSPSKLSCTESESDSSGESEGGTSKDSSTTPTGSKAKRTLVKPPYSYIALITMAILQSPHKKLTLSGICDFISSKFPYYKDKFPAWQNSIRHNLSLNDCFIKIPREPGNPGKGNYWTLDPASEDMFDNGSFLRRRKRFKRHQQEFFKDGLMMYNSLPYYRPYSAIQPQPVLQQTSLTCMAIPETLPMSTHLAPYPDIKRKVSYPAQGVHRGFKAQDADNHPNNSQSKCSFSIENIMRKPKEPEPNIQSFNSHWNYNHVFQRPSSCLLPAVLNLSTGPLLANTQGARQYNLIQFPGCY
